Data from article PMC12804074.

Experiments:
[1] = molecular target: (NFS1–ISD11–ACP–ISCU2)2 complex (human) (UniProt Q9HD34); assay: ITC
[2] = molecular target: cysteine desulfurase complex (NFS1–ISD11–ACP)2 (human) (UniProt Q9HD34); assay: ITC
[3] = molecular target: FXNALC (frataxin labelled with ALC 480) (human) (UniProt Q16595); assay: flow-induced dispersion analysis
[4] = molecular target: FDX2ALC (ferredoxin-2 labelled with ALC 480) (human) (UniProt Q6P4F2); assay: flow-induced dispersion analysis
Sequence of FDX2ALC (ferredoxin-2 labelled with ALC 480) (human) (Q6P4F2 53-183): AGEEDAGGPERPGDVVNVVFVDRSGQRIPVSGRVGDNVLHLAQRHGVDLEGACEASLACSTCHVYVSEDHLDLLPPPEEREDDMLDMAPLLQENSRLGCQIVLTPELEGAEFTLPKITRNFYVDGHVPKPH

Sequence of ferredoxin-2 (FDX2), wild type (Q6P4F2 53-183): as above

ferredoxin-2 (FDX2), wild type (from UniProt Q6P4F2 53-183) (natural protein)
KD of the tight-binding exothermic mode [1]: 102 nM

FDX2 D179A (from UniProt Q6P4F2 53-183) (natural protein)
Kd [2]: 39 nM

(NFS1–ISD11–ACP–ISCU2)2 complex (from UniProt Q9HD34 1-91; O14561 69-156; Q9H1K1-1 35-167)
Kd [3]: 102 nM | Kd [4]: 16 µM

frataxin (FXN) (from UniProt Q16595 42-210) (natural protein)
Kd [1]: 146 nM
